According to US20010004522A1, “KINASE ACTIVITY MEASUREMENT USING FLUORESCENCE POLARIZATION” (priority 1997, published 2001):

Key:
[1] = target: T1, T-cell protein tyrosine phosphatase (Homo sapiens, UniProt P17706); test: Phosphatase activity by fluorescence polarization; assay type: biochemical; details: 1.0 mM Na3VO4, 0.5 U T-cell protein tyrosine phosphatase, 30° C.
T1 construct: purchased New England Biolabs
T1 sequence (P17706 1-317 limits assumed): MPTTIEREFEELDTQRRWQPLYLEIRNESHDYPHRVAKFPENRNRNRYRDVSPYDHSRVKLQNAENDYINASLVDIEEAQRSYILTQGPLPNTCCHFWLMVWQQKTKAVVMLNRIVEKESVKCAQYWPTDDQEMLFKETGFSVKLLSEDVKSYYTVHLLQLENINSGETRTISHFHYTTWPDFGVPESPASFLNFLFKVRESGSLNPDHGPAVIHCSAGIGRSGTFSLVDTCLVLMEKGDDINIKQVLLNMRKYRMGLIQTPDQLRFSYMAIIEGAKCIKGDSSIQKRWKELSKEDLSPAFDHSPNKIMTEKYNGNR
Procedure: Fluorescence polarization can also be used to measure phosphatase activity.
Phosphatase enzyme was added to a high polarization mixture and as it removed the phosphate from the peptide, the antibody was released, and the polarization value went down, shown in FIG. 13. Two control experiments were performed. […] This assay was performed with all of the reaction and detection components present in a test tube. However, this reaction could also be done as an endpoint assay with aliquots of the reaction taken at incremental time points, or with different reactions started at the same time but terminated at incremental time points.

EGF receptor = EGF receptor (Homo sapiens, UniProt P00533); details: 50 mM EDTA, ~12.5 nM EGF receptor, 30° C., polarization read every 10 seconds
GFAP peptide = test: Radioactive (32P) kinase assay of PKC isozymes on GFAP peptide; assay type: biochemical; details: GFAP peptide 100 μg/ml, 10 μM ATP, 100 μM CaCl2, no EGTA
[2] = target: T2, PKC Epsilon (ε) substrate peptide (Homo sapiens, UniProt Q02156); test: PKC activity assay, phospholipid dependence; assay type: biochemical
T2 construct: made in house
T2 sequence (Q02156 1-737): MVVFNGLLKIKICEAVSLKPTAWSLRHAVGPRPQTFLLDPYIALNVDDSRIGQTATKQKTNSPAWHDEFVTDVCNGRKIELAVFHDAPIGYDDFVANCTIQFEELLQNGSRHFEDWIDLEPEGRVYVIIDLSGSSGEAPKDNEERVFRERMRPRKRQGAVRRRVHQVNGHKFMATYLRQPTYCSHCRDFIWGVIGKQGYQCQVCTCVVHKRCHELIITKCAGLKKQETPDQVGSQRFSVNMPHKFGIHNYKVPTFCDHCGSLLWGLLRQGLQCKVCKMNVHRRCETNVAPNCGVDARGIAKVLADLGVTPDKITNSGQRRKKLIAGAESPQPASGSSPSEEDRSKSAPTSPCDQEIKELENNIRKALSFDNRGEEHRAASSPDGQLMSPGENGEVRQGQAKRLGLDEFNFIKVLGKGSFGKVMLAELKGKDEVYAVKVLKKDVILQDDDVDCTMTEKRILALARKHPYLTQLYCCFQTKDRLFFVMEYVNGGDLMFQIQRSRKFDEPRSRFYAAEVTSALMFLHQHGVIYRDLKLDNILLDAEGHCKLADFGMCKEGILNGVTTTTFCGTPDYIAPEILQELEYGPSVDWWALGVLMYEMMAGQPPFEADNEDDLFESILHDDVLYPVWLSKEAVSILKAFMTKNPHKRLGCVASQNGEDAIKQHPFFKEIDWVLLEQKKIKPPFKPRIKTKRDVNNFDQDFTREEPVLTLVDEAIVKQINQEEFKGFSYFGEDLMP
Description: The purpose of this protocol is to provide the reader with the conditions that we use to determine the activity and phospholipid dependence of Protein Kinase C ε. This protein is purified to near homogeneity and may behave differently from crude preparations. The calculated molecular weight of the protein is 83.5 kDa. Apparent molecular weights of 89-96 kDa have been reported in the literature, and the protein may run as a doublet (1). […] With the assay described in this protocol, we typically see a two-fold phosphatidylserine stimulation of activity. There are many factors that can affect the phospholipid dependence of this enzyme and it will display different degrees of dependency for different substrates. The quality of the lipids used is very important and can affect the lipid dependency dramatically. The reaction conditions given in this protocol and the enzyme concentration ranges used give linear reaction kinetics over at least ten minutes.
[…] of Phosphatidylserine (1.2 μl of 10 mg/ml PS Stock) and […] of diacylglycerol (0.6 μl of 2 mg/ml DAG Stock) are needed per reaction. Determine the total amount of each needed for the number of reactions one is running and make up 10% more lipid mix than required to account for pipetting loss.
Using a Hamilton syringe (remember to clean out with methanol), transfer the required volume of each lipid stock to a 12×75 mm glass test tube. Thoroughly dry down the chloroform with a nitrogen stream and gentle rotation of the tube. Resuspend the dried mixture with 10 μl buffer per reaction. Resuspension buffer is 10 mM HEPES, pH 7.4/0.3% Triton X-100. Vortex into solution/suspension. This will take at least two minutes of vortexing. Place the lipid mix in a 40° C. water bath for 5 minutes prior to adding to the reaction mix.
1). Make up the reaction mix. All assays should be done in triplicate. Two blanks (reaction mix with no enzyme added) should be included and one tube for determining the total cpm's in a reaction.
2). Dispense 60 μl of mix into each tube and place tubes at 30° C.
3). Dilute the protein to be assayed to between 20 and 50 ng/μl.
4). Add 2 μl of diluted enzyme to each tube at 20 second intervals. Blanks have no enzyme added.
5). Stop reactions at 10 minutes by adding 6 μl 5% phosphoric acid.
6). Incubate on ice for 5 minutes.
7). Spot 5 μl of reaction mix on to two phosphocellulose membranes. These are the “Totals”.
8). Transfer 55 μl from each tube to phosphocellulose membranes. Allow to dry. Wash the membranes three times with 5 ml 0.5% phosphoric acid per filter in a 400 ml beaker.
9). Transfer membranes to scintillation vials and count (drying is not necessary). […]

Sequence of EGF receptor (P00533 25-1210): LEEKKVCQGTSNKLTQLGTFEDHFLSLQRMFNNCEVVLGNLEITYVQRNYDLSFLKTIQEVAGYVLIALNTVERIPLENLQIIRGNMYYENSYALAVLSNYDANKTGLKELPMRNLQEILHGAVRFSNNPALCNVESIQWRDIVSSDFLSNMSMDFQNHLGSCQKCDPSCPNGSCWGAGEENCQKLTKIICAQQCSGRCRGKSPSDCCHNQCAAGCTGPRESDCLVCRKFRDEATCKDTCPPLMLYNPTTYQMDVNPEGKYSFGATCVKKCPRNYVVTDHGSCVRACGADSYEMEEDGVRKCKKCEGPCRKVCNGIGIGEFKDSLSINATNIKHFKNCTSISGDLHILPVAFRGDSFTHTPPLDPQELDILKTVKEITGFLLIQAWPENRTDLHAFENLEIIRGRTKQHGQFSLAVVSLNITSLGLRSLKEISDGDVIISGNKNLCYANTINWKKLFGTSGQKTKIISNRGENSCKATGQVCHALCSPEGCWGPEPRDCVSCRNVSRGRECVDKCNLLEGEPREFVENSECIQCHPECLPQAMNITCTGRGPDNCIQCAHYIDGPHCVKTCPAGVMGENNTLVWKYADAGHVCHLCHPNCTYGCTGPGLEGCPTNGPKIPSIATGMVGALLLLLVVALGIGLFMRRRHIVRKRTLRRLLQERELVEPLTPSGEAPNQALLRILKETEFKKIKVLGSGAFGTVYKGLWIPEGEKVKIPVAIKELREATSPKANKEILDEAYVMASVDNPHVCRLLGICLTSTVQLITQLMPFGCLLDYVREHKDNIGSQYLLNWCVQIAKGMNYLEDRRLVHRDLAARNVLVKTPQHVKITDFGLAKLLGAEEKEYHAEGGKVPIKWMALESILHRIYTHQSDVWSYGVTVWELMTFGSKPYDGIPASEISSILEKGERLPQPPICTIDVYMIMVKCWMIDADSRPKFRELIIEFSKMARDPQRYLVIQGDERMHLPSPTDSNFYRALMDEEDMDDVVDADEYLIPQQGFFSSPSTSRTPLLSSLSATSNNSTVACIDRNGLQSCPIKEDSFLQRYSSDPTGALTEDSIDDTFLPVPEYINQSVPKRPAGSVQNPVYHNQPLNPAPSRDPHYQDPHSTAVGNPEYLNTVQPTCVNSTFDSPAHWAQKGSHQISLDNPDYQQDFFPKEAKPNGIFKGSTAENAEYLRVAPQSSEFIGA

For `[Na+].[Na+].[Na+].[O]=[V]([O-])([O-])[O-]` [vanadate, Na3VO4], the “polarization value (phosphatase activity)” value [1] was “remained constant”.

`O=C(O)CN(CCN(CC(=O)O)CC(=O)O)CC(=O)O` [EDTA] was tested, and the “EGF receptor kinase activity” value (EGF receptor) was “inhibits”.

B1: PKC epsilon: PKC isozyme tested for phosphorylation of GFAP peptide (protein, UniProt Q02156 1-737, looked up)
Protein kinase C epsilon type: T2 sequence (Q02156 1-737)
For B1, the “substrate phosphorylated (radioactive data for FIG. 6)” value (GFAP peptide) was 1.47%.

B2: PKC ε lot #6747: Protein Kinase C ε purified to near homogeneity, current lot of the enzyme (protein, UniProt Q02156 1-737, looked up)
Protein kinase C epsilon type: T2 sequence (Q02156 1-737)
For B2, the “% Activity” value ([2]; No Lipid Activators) was 59%, the “Specific Activity” value ([2]; No Lipid Activators) was 743 and the “% Activity” value ([2]; PS/DAG) was 100%. The “Specific Activity” value ([2]; PS/DAG) was 1250.
